Laboratory results as given in the supplement of paper PMC11246515.
± gives the standard deviation of the averaged measurements.

Assay: total protein half-life in vivo (active degradation + dilution); higher = more stable protein
[1] = E. coli NCM3722 delta-hslV, growth: N-lim chemostat, doubling time 6 h
[2] = wild type E. coli NCM3722, growth: N-lim chemostat, doubling time 12 h
[3] = E. coli NCM3722 delta-clpP delta-lon delta-hslV, growth: N-lim chemostat, doubling time 6 h
[4] = E. coli NCM3722 delta-smpB, growth: N-lim chemostat, doubling time 6 h
[5] = wild type E. coli NCM3722, growth: N-lim chemostat, doubling time 6 h
[6] = wild type E. coli NCM3722, growth: P-lim chemostat, doubling time 6 h
[7] = E. coli NCM3722 delta-clpP, growth: N-lim chemostat, doubling time 6 h
[8] = E. coli NCM3722 delta-lon, growth: N-lim chemostat, doubling time 6 h
[9] = wild type E. coli NCM3722, growth: C-lim chemostat, doubling time 3 h
[10] = wild type E. coli NCM3722, growth: C-lim chemostat, doubling time 6 h
[11] = wild type E. coli NCM3722, growth: C-lim chemostat, doubling time 12 h
[12] = wild type E. coli NCM3722, growth: P-lim chemostat, doubling time 12 h

MANFFIRRPIFAWVLAIILMMAGALAILQLPVAQYPTIAPPAVSVSANYPGADAQTVQDTVTQVIEQNMNGIDNLMYMSSTSDSAGSVTITLTFQSGTDPDIAQVQVQNKLQLATPLLPQEVQQQGISVEKSSSSYLMVAGFVSDNPGTTQDDISDYVASNVKDTLSRLNGVGDVQLFGAQYAMRIWLDADLLNKYKLTPVDVINQLKVQNDQIAAGQLGGTPALPGQQLNASIIAQTRFKNPEEFGKVTLRVNSDGSVVRLKDVARVELGGENYNVIARINGKPAAGLGIKLATGANALDTAKAIKAKLAELQPFFPQGMKVLYPYDTTPFVQLSIHEVVKTLFEAIMLVFLVMYLFLQNMRATLIPTIAVPVVLLGTFAILAAFGYSINTLTMFGMVLAIGLLVDDAIVVVENVERVMMEDKLPPKEATEKSMSQIQGALVGIAMVLSAVFIPMAFFGGSTGAIYRQFSITIVSAMALSVLVALILTPALCATLLKPVSAEHHENKGGFFGWFNTTFDHSVNHYTNSVGKILGSTGRYLLIYALIVAGMVVLFLRLPSSFLPEEDQGVFLTMIQLPAGATQERTQKVLDQVTDYYLKNEKANVESVFTVNGFSFSGQAQNAGMAFVSLKPWEERNGDENSAEAVIHRAKMELGKIRDGFVIPFNMPAIVELGTATGFDFELIDQAGLGHDALTQARNQLLGMAAQHPASLVSVRPNGLEDTAQFKLEVDQEKAQALGVSLSDINQTISTALGGTYVNDFIDRGRVKKLYVQADAKFRMLPEDVDKLYVRSANGEMVPFSAFTTSHWVYGSPRLERYNGLPSMEIQGEAAPGTSSGDAMALMENLASKLPAGIGYDWTGMSYQERLSGNQAPALVAISFVVVFLCLAALYESWSIPVSVMLVVPLGIVGVLLAATLFNQKNDVYFMVGLLTTIGLSAKNAILIVEFAKDLMEKEGKGVVEATLMAVRMRLRPILMTSLAFILGVLPLAISNGAGSGAQNAVGIGVMGGMVSATLLAIFFVPVFFVVIRRCFKG
total protein half-life in vivo [1]: 5.63 h | total protein half-life in vivo [2]: 8.2 h

MGMLEARELLCERDERTLFSGLSFTLNAGEWVQITGSNGAGKTTLLRLLTGLSRPDAGEVLWQGQPLHQVRDSYHQNLLWIGHQPGIKTRLTALENLHFYHRDGDTAQCLEALAQAGLAGFEDIPVNQLSAGQQRRVALARLWLTRATLWILDEPFTAIDVNGVDRLTQRMAQHTEQGGIVILTTHQPLNVAESKIRRISLTQTRAA
total protein half-life in vivo [3]: 6.22 h | total protein half-life in vivo [4]: 5.33 h | total protein half-life in vivo [5]: 5.94 ± 0.86 h

MSDLHNESIFITGGGSGLGLALVERFIEEGAQVATLELSAAKVASLRQRFGEHILAVEGNVTCYADYQRAVDQILTRSGKLDCFIGNAGIWDHNASLVNTPAETLETGFHELFNVNVLGYLLGAKACAPALIASEGSMIFTLSNAAWYPGGGGPLYTASKHAATGLIRQLAYELAPKVRVNGVGPCGMASDLRGPQALGQSETSIMQSLTPEKIAAILPLQFFPQPADFTGPYVMLTSRRNNRALSGVMINADAGLAIRGIRHVAAGLDL [P0CI31]
total protein half-life in vivo [3]: 6.21 ± 0.63 h | total protein half-life in vivo [6]: 3.6 ± 0.55 h

MNVNFFVTCIGDALKSRMARDSVLLLEKLGCRVNFPEKQGCCGQPAINSGYIKEAIPGMKNLIAALEDNDDPIISPAGSCTYAVKSYPTYLADEPEWASRAAKVAARMQDLTSFIVNKLGVVDVGASLQGRAVYHPSCSLARKLGVKDEPLTLLKNVRGLELLTFAEQDTCCGFGGTFSVKMAEISGEMVKEKVAHLMEVRPEYLIGADVSCLLNISGRLQREGQKVKVMHIAEVLMSR
total protein half-life in vivo [3]: 4.88 ± 0.35 h | total protein half-life in vivo [7]: 2.8 h | total protein half-life in vivo [1]: 3.22 ± 0.43 h | total protein half-life in vivo [8]: 4.91 h | total protein half-life in vivo [4]: 3.17 ± 0.06 h | total protein half-life in vivo [9]: 3.05 ± 0.46 h | total protein half-life in vivo [10]: 4.67 ± 0.46 h | total protein half-life in vivo [11]: 8.01 ± 0.23 h | total protein half-life in vivo [5]: 4.38 ± 0.39 h | total protein half-life in vivo [2]: 6.19 ± 1.3 h | total protein half-life in vivo [6]: 4.49 h | total protein half-life in vivo [12]: 8.05 ± 0.092 h

MERLLIVNADDFGLSKGQNYGIIEACRNGIVTSTTALVNGQAIDHAVQLSRDEPSLAIGMHFVLTMGKPLTAMPGLTRDGVLGKWIWQLAEEDALPLEEITQELVSQYLRFIELFGRKPTHLDSHHHVHMFPQIFPIVARFAAEQGIALRADRQMAFDLPVNLRTTQGFSSAFYGEEISESLFLQVLDDAGHRGDRSLEVMCHPAFIDNTIRQSAYCFPRLTELDVLTSASLKGAIAQRGYRLGSYRDV
total protein half-life in vivo [7]: 3.19 ± 0.45 h | total protein half-life in vivo [1]: 3.38 h | total protein half-life in vivo [8]: 3.55 ± 0.42 h | total protein half-life in vivo [4]: 2.945 ± 0.014 h | total protein half-life in vivo [9]: 2.86 ± 0.21 h | total protein half-life in vivo [10]: 4.51 ± 0.39 h | total protein half-life in vivo [11]: 7.9 ± 0.51 h | total protein half-life in vivo [5]: 3.27 ± 0.43 h | total protein half-life in vivo [2]: 4.74 ± 0.26 h | total protein half-life in vivo [6]: 5.12 ± 0.14 h | total protein half-life in vivo [12]: 10.1 ± 0.26 h

MNTIFSARIMKRLALTTALCTAFISAAHADDLNIKTMIPGVPQIDAESYILIDYNSGKVLAEQNADVRRDPASLTKMMTSYVIGQAMKAGKFKETDLVTIGNDAWATGNPVFKGSSLMFLKPGMQVPVSQLIRGINLQSGNDACVAMADFAAGSQDAFVGLMNSYVNALGLKNTHFQTVHGLDADGQYSSARDMALIGQALIRDVPNEYSIYKEKEFTFNGIRQLNRNGLLWDNSLNVDGIKTGHTDKAGYNLVASATEGQMRLISAVMGGRTFKGREAESKKLLTWGFRFFETVNPLKVGKEFASEPVWFGDSDRASLGVDKDVYLTIPRGRMKDLKASYVLNSSELHAPLQKNQVVGTINFQLDGKTIEQRPLVVLQEIPEGNFFGKIIDYIKLMFHHWFG [P0AEB2]
total protein half-life in vivo [3]: 6.19 ± 0.7 h | total protein half-life in vivo [7]: 6.72 ± 0.74 h | total protein half-life in vivo [1]: 6.22 ± 0.15 h | total protein half-life in vivo [8]: 6.61 ± 0.36 h | total protein half-life in vivo [4]: 6.03 ± 0.14 h | total protein half-life in vivo [9]: 3.24 ± 0.07 h | total protein half-life in vivo [10]: 6.05 ± 0.17 h | total protein half-life in vivo [11]: 12 ± 2.8 h | total protein half-life in vivo [5]: 6.23 ± 0.14 h | total protein half-life in vivo [2]: 14.5 ± 2 h | total protein half-life in vivo [6]: 6.1 ± 0.093 h | total protein half-life in vivo [12]: 13.2 ± 0.43 h

MTDKTIAFSLLDLAPIPEGSSAREAFSHSLDLARLAEKRGYHRYWLAEHHNMTGIASAATSVLIGYLAANTTTLHLGSGGVMLPNHSPLVIAEQFGTLNTLYPGRIDLGLGRAPGSDQRTMMALRRHMSGDIDNFPRDVAELVDWFDARDPNPHVRPVPGYGEKIPVWLLGSSLYSAQLAAQLGLPFAFASHFAPDMLFQALHLYRSNFKPSARLEKPYAMVCINIIAADSNRDAEFLFTSMQQAFVKLRRGETGQLPPPIQNMDQFWSPSEQYGVQQALSMSLVGDKAKVRHGLQSILRETDADEIMVNGQIFDHQARLHSFELAMDVKEELLG [P0ADV5]
total protein half-life in vivo [3]: 4.46 ± 0.36 h | total protein half-life in vivo [7]: 4.24 ± 0.94 h | total protein half-life in vivo [1]: 5.06 ± 1.8 h | total protein half-life in vivo [8]: 3.94 ± 0.19 h | total protein half-life in vivo [4]: 3.55 ± 0.21 h | total protein half-life in vivo [9]: 3.07 ± 0.28 h | total protein half-life in vivo [5]: 4.47 ± 1.3 h | total protein half-life in vivo [2]: 5.76 ± 1.3 h | total protein half-life in vivo [6]: 6.06 ± 0.55 h | total protein half-life in vivo [12]: 11.1 ± 0.18 h
